The values below come from US20230028110A1 (ADAPTATE BIOTHERAPEUTICS, published 2023).

The chains are these.
B1: 1138_P01_B09 (antibody, IgG1, V domains shown)
VH: EVQLLESGGGLVKPGGSLRLSCAASGFTFSDYYMSWIRQAPGKGLEWVSYISSSGSTIYYADSVKGRFTISRDNAKNSLYLQMNSLRAEDTAVYYCARHSWSDAFDIWGQGTLVTVSS
VL: DIQMTQSPSSLSASVGDRVTITCQASQDISNYLNWYQQKPGKAPKLLIYDASNLETGVPSRFSGSGSGTDFTLTISSLQPEDFATYYCQQSYSTPLTFGGGTKVEIK
notes: IgG1
B2: 1245_P01_G06 (antibody, V domains shown)
VH: QVQLVESGGGLVKPGGSLRLSCAASGFTFSDYYMSWIRQAPGKGLEWVSYISSSGSTIYYADSVKGRFTISRDNAKNSLYLQMNSLRAEDTAVYYCARHSWNDAFDVWGQGTLVTVSS
VL: not shown
notes: IgG1
B3: 1252_P01_C08 (antibody, IgG1, V domains shown)
VH: EVQLLESGGGLVQPGRSLRLSCAASGFTVSSNYMSWVRQAPGKGLEWVSVIYSGGSTYYADSVKGRFTISRDNSKNTLYLQMNSLRAEDTAVYYCASPIELGAFDIWGQGTLVTVSS
VL: SSYELTQPPSVSVAPGKTARITCGGNNIGSQSVHWYQQKPGQAPMLVIYYDSDRPSGIPERFSGSNSGNTATLTISRVEAGDEADYYCQVWDSSSDHVVFGGGTKLTVL
notes: IgG1, lambda light chain
B4: 1139_P01_E04 (antibody, IgG1, V domains shown)
VH: QVQLQQSGPGLVKPSQTLSLTCAISGDSVSSNSAAWNWIRQSPSRGLEWLGRTYYRSKWYNDYAVSVRSRITINPDTSKNQFSLQLNSVTPEDTAVYYCARSWNDAFDIWGQGTTVTVSS
VL: DIVMTQSPSTLSASIGDRVTITCRAGQSISTWLAWYQQKPGKAPKLLIYDASSLESGVPLRFSGSGSGTDFTLTISSLQPEDFATYYCQQSYSTPLTFGGGTKVEIK
notes: IgG1
B5: 1245_P02_F07 (antibody, IgG1, V domains shown)
VH: QVQLQQSGPGLVKPSQTLSLTCVISGDSVSSNSAAWNWIRQSPSRGLEWLGRTYYRSKWYNDYAVSVKSRITINPDTSKNQFSLQLNSVTPEDTAVYYCARDYYYSMDVWGQGTMVTVSS
VL: DIQMTQSPSTLSASVGDRVTITCRASQSISSWLAWYQQKPGKAPKLLIYDASSLESGVPLRFSGSGSGTEFTLTISSLQPDDFATYYCQQSHSHPPTFGPGTKVDIK
notes: IgG1
B6: 1251_P02_C05 (antibody, IgG1, V domains shown)
VH: EVQLLESGGGLVQPGGSLRLSCAASGFTFSSYAMSWVRQAPGKGLEWVSAISGGGGTTYSSDSVKGRFTISRDNSKNTLYLQMNSLRAEDTAVYYCARDSGVAFDIWGQGTLVTVSS
VL: DIQMTQSPSFLSASVGDRVTITCRASQNIRTWLAWYQQKPGRAPKLLIYDASSLESGVPSRFSGSGSGTDFTLTISSLQPEDFATYYCQQFKRYPPTFGLGTKVEIK
notes: IgG1
B7: 1141_P01_E01 (antibody, IgG1, V domains shown)
VH: QVQLVQSGAEVKKPGESLKISCKGSGYSFTSYWIGWVRQMPGKGLEWMGIIYPGDSDTRYSPSFQGQVTISADKSISTAYLQWSSLKASDTAMYYCARHQVDTRTADYWGQGTLVTVSS
VL: SQSALTQPASVSGSPGQSVTISCTGTRSDVGGYNYVSWYQHHPGKAPKLMIYEVSNRPSGVSNRFSGSKSGNTASLTISGLQAEDEADYYCSSYTSTSTLVFGGGTKLTVL
notes: IgG1, lambda light chain
B8: ADT1-7-22 (antibody, IgG1, V domains shown)
VH: EVQLVESGGGLVKPGGSLRLSCAASGFTFSDYYMSWIRQAPGKGLEWVSYISSSGSTIYYADSVKGRFTISRDNAKNSLYLQMNSLRAEDTAVYYCARDDYNDAFDIWGQGTLVTVSS
VL: DIQMTQSPSSLSASVGDRVTIACRAGQSIGTYLNWYQQKPGKAPKLLIYVASSLQSGVPSRFSGSGSGTEFTLTISSLQPEDFATYYCQQSASELLTFGRGTKVEIK
notes: IgG1
B9: ADT1-7-17 (antibody, IgG1, V domains shown)
VH: EVQLVESGGGLVKPGGSLRLSCAASGFTFSDYYMSWIRQAPGKGLEWVSYISSSGSTIYYADSVKGRFTISRDNAKNSLYLQMNSLRAEDTAVYYCARIDYEDAFDIWGQGTLVTVSS
VL: DIQMTQSPSSLSASVGDRVTIACRAGQSIGTYLNWYQQKPGKAPKLLIYVASSLQSGVPSRFSGSGSGTEFTLTISSLQPEDFATYYCQQSGSELLTFGRGTKVEIK
notes: IgG1
B10: ADT1-7-23 (antibody, IgG1, V domains shown)
VH: EVQLVESGGGLVKPGGSLRLSCAASGFTFSDYYMSWIRQAPGKGLEWVSYISSSGSTIYYADSVKGRFTISRDNAKNSLYLQMNSLRAEDTAVYYCARVDYNEAFDIWGQGTLVTVSS
VL: DIQMTQSPSSLSASVGDRVTIACRAGQSIGTYLNWYQQKPGKAPKLLIYVASSLQSGVPSRFSGSGSGTEFTLTISSLQPEDFATYYCQQSYSGLDTFGRGTKVEIK
notes: IgG1
B11: ADT1-7-42 (antibody, IgG1, V domains shown)
VH: EVQLVESGGGLVKPGGSLRLSCAASGFTFSDYYMSWIRQAPGKGLEWVSYISSSGSTIYYADSVKGRFTISRDNAKNSLYLQMNSLRAEDTAVYYCARDDYEDAFDIWGQGTLVTVSS
VL: DIQMTQSPSSLSASVGDRVTIACRAGQSIGTYLNWYQQKPGKAPKLLIYVASSLQSGVPSRFSGSGSGTEFTLTISSLQPEDFATYYCQQSSSELLTFGRGTKVEIK
notes: IgG1
B12: ADT1-7-19 (antibody, IgG1, V domains shown)
VH: EVQLVESGGGLVKPGGSLRLSCAASGFTFSDYYMSWIRQAPGKGLEWVSYISSSGSTIYYADSVKGRFTISRDNAKNSLYLQMNSLRAEDTAVYYCARIDYEDAFDIWGQGTLVTVSS
VL: DIQMTQSPSSLSASVGDRVTIACRAGQSIGTYLNWYQQKPGKAPKLLIYVASSLQSGVPSRFSGSGSGTEFTLTISSLQPEDFATYYCQQSASELLTFGRGTKVEIK
notes: IgG1
B13: ADT1-7-10 (antibody, IgG1, V domains shown)
VH: EVQLVESGGGLVKPGGSLRLSCAASGFTFSDYYMSWIRQAPGKGLEWVSYISSSGSTIYYADSVKGRFTISRDNAKNSLYLQMNSLRAEDTAVYYCARDDYNDAFDIWGQGTLVTVSS
VL: DIQMTQSPSSLSASVGDRVTIACRAGQSIGTYLNWYQQKPGKAPKLLIYVASSLQSGVPSRFSGSGSGTEFTLTISSLQPEDFATYYCQQTASTLLTFGRGTKVEIK
notes: IgG1
B14: ADT1-7-15 (antibody, IgG1, V domains shown)
VH: EVQLVESGGGLVKPGGSLRLSCAASGFTFSDYYMSWIRQAPGKGLEWVSYISSSGSTIYYADSVKGRFTISRDNAKNSLYLQMNSLRAEDTAVYYCARDDYNDAFDIWGQGTLVTVSS
VL: DIQMTQSPSSLSASVGDRVTIACRAGQSIGTYLNWYQQKPGKAPKLLIYVASSLQSGVPSRFSGSGSGTEFTLTISSLQPEDFATYYCQQSADTLLTFGRGTKVEIK
notes: IgG1
B15: ADT1-7-18 (antibody, IgG1, V domains shown)
VH: EVQLVESGGGLVKPGGSLRLSCAASGFTFSDYYMSWIRQAPGKGLEWVSYISSSGSTIYYADSVKGRFTISRDNAKNSLYLQMNSLRAEDTAVYYCARVSYDDAFDIWGQGTLVTVSS
VL: DIQMTQSPSSLSASVGDRVTIACRVGQSIGTYLNWYQQKPGKAPKLLIYVASSLQSGVPSRFSGSGSGTEFTLTISSLQPEDFATYYCQQSASELLTFGRGTKVEIK
notes: IgG1

The target in one test is T1, L1 (DV1-GV4), soluble human Vδ1/Vγ4 γδ TCR heterodimer in leucine zipper format (human).
T1 construct: Biotinylated in the DELFIA ranking; also called Antigen L1 (TRDV1/TRGV4); human DV1-GV4; not shown: gamma chain: Vγ4 (TRGV4) domain on a TCR constant region, leucine zipper, histidine tag
T1 sequence (main, as listed by the source): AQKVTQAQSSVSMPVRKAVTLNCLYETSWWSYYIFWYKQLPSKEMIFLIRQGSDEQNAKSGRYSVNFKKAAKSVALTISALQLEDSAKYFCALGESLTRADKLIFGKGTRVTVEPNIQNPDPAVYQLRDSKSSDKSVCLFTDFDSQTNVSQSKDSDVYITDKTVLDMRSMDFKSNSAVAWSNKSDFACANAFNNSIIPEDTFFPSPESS
Put plainly: DELFIA, 100 nM biotinylated L1.
B1: the “DELFIA signal at 100 nM L1” value was found to be 29200 fluorescence units. The same measure, in the same setting: next, B2: 22500 fluorescence units. As for B3, the “DELFIA signal at 100 nM L1” value was found to be 1980 fluorescence units. Still for that read-out and setting: next, B4: 23800 fluorescence units; B5: 10400 fluorescence units. The same measure, in the same setting: under B6 stands 65300 fluorescence units; under B7, 137000 fluorescence units.

Another test concerns the target T1, L1 (DV1-GV4), soluble human Vδ1/Vγ4 γδ …. As to the kind of experiment: DELFIA ELISA, human antigen; heat map cell of the clone.
On to B8, for which the “ELISA signal (heat map)” value came out at 27800. On to B9, for which the “ELISA signal (heat map)” value came out at 30200. With B10, the “ELISA signal (heat map)” value is 34400. Consider B11, for which the “ELISA signal (heat map)” value was 37600.

Regarding B12, the “ELISA signal (heat map)” value was 34700. Same read-out and setting: next, B13: 30900. As to B14, the “ELISA signal (heat map)” value came to 30400.

Turning to B15, the “ELISA signal (heat map)” value worked out at 34800.
